In assay [1] the target is T1, human PD-L1 on CHO-K1 cells overexpressing human PD-L1 (human, UniProt Q9NZQ7 19-290).
T1 construct: whole, on cells; also called CHO-K1/hPD-L1; CHO-K1-hPD-L1
The experiment in a line: flow cytometry on CHO-K1 cells overexpressing human PD-L1 (CHO-K1/hPD-L1). The method, then: (§1) In the example, in order to study the in vitro binding activity of the PD-L1 antigen-binding protein to human/cynomolgus monkey PD-L1, cell-level binding experiments were performed using CHO-K1 cell strains overexpressing human PD-L1 (CHO-K1/hPD-L1, GenScript, M00543) or CHO-K1 cell strains overexpressing cynomolgus monkey PD-L1 (CHO-K1/cynoPD-L1, GenScript, M00573). Briefly, the PD-L1 cells were digested and resuspended in an F-12K complete medium, and the cell density was adjusted to 1×10⁶ cells/mL. The cells were seeded in a 96-well V-bottom plate (Corning, 3894) at 100 μL/well, followed by the addition of the test antigen-binding proteins serially diluted 5-fold with concentrations that were twice the final concentrations at 100 μL/well. The mixtures were well mixed. The highest final concentration of the antigen-binding proteins was 100 nM. A total of 8 concentrations were set. An isotype antibody hIgG1 iso was used as a control. The cells were incubated away from light at 4° C. for 1 h. Thereafter, the cells in each well were rinsed twice with 100 μL of pre-cooled PBS, and centrifuged at 500 g at 4° C. for 5 min, and then the supernatant was discarded. Then 100 μL of a fluorescent secondary antibody (goat anti-human IgG (H+L) secondary antibody, Alexa Fluor 488 conjugate, Invitrogen, A11013, diluted at the ratio of 1:1000) was added to each well. The plate was incubated away from light at 4° C. for 30 min. The cells in each well were then rinsed twice with 200 μL of pre-cooled PBS and centrifuged at 500 g at 4° C. for 5 min, and then the supernatant was discarded. Finally, a pre-cooled PBS was added at 200 μL/well to resuspend the cells. Fluorescence signal values were read using a BD FACS CANTOII. Fluorescence signal values were read using a flow cytometer BD FACS CANTOII or FACS ACEA, and the data were processed and analyzed using FlowJo v10 (FlowJo, LLC) software. The data were processed and analyzed by plotting using GraphPad Prism 8 software, and binding curves, EC50 values and other parameters were acquired through four-parameter nonlinear fitting.

The target in assay [2] is T2, cynomolgus monkey PD-L1 on CHO-K1 cells overexpressing cynomolgus monkey PD-L1 (cynomolgus monkey, UniProt G7PSE7 19-290).
T2 construct: also called CHO-K1/cynoPD-L1; GenScript M00573
The experiment in a line: flow cytometry on CHO-K1 cells overexpressing cynomolgus monkey PD-L1 (CHO-K1/cynoPD-L1). The protocol: as §1

Assay [3] has as its target T1, human PD-L1 on CHO-K1 cells …. Briefly: flow cytometry on CHO-K1 cells overexpressing human PD-L1 (CHO-K1/hPD-L1). The method, then:
as §1
This is another data set of the same source.

For assay [4], the target named is T3, human PD-L1 protein with histidine tag (ACROBiosystems #PD-1-H5258) (human, UniProt Q9NZQ7 19-238).
T3 construct: Bought protein; also called His PD-L1; human PD-L1 proteins; not shown: histidine tag
The experiment in a line: BLI (Octet Red96e); His-tagged human PD-L1 captured on HIS1K sensor, antibody at 60 nM; 1:1 fit. The protocol:
In this example, affinity determination was performed on the affinity-matured mutants of PR002082 using an Octet Red96e instrument. […] The binding kinetics between the antigen and the antibody was analyzed by the biolayer interferometry (BLI) technique using an Octet molecular interaction analyzer (ForteBio, model: Octet Red96e).
When the affinity of the antigen for the antibody was determined, the rotation speed of the sensor was set at 1000 rpm/min. The 2 HIS1K sensors placed in a column were first equilibrated for 10 min in test buffer, then His PD-L1 was captured with the HIS1K sensor at a capture height of 0.9-1.1 nm, then the HIS1K sensor was equilibrated for 2 min in the test buffer, then the HIS1K sensor was bound to the antigen-binding protein (60 nM and 0 nM) for 3 min, and finally the mixture was dissociated for 15 min. The HIS1K sensor was immersed in a 10 mM glycine solution (pH 1.5) for regeneration to elute the proteins bound to the sensor.
When data analysis was performed using Octet Data Analysis software (Fortebio, version 11.0), the reference signals were subtracted by a single reference mode (reference well), the data were fitted by a “1:1 Local/full fitting” method, and the kinetic parameters of the binding of the antigen to the antibody were calculated to obtain Kₒₙ (1/Ms) values, Kdis (1/s) values and KD (M) values.

Assay [5] addresses T2, cynomolgus monkey PD-L1 on CHO-K1 cells …. Briefly: flow cytometry on CHO-K1 cells overexpressing cynomolgus monkey PD-L1 (CHO-K1/cynoPD-L1). The protocol: as §1
The source holds these as a separate data set.

Assay [6] deals with T1, human PD-L1 on CHO-K1 cells …. The experiment in a line: flow cytometry on CHO-K1 cells overexpressing human PD-L1 (CHO-K1/hPD-L1) [continued) E]. The protocol:
as §1

The target is the same in assay [7]. The experiment in a line: flow cytometry on CHO-K1 cells overexpressing human PD-L1 (CHO-K1/hPD-L1) [continued) F]. The protocol:
as §1

Assay [8] has the same target. The experiment in a line: flow cytometry on CHO-K1 cells overexpressing human PD-L1 (CHO-K1/hPD-L1) [continued) D]. The method, then: as §1

Data on 11 molecules can be found in patent publication US20240269276A1 (HARBOUR BIOMED SHANGHAI, published 2024).

Like-named read-outs stand apart in the source and are kept apart here.

T2 sequence (G7PSE7 entry or part of it limits assumed): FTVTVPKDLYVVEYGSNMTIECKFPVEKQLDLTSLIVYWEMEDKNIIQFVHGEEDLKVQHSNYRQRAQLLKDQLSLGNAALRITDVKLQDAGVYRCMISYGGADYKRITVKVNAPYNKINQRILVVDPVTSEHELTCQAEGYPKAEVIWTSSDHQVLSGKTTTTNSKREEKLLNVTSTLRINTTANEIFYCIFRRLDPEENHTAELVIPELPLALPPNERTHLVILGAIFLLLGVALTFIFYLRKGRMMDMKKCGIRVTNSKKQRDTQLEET
T1 sequence (Q9NZQ7 19-290): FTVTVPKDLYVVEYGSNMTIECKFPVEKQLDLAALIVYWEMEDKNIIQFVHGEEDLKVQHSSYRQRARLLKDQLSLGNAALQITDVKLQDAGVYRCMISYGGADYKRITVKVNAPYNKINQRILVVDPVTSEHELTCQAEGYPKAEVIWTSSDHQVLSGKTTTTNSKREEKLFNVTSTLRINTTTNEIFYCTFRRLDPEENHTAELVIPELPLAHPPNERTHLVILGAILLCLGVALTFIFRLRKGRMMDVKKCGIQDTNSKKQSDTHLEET
T3 sequence (Q9NZQ7 19-238 limits assumed): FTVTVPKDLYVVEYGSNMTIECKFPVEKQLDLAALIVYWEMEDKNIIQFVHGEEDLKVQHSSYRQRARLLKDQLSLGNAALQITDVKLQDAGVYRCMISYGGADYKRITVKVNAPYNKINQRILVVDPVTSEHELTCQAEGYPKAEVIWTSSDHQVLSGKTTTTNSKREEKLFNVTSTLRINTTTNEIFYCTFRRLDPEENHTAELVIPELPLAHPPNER

B1: PR000960 (antibody, human IgG1, V domains shown)
VH: QVQLVESGGGVVQPGMSLRLSCAASGFNFSNYGMYWVRQAPGKGQEWVAIIWYDGTKKHYADSVKGRFTISRDNSKNTLYLEMNSLRVEDTAVYYCAKNRAIFGVVPDASDIRGQGTMVTVSS
notes: Heavy-chain-only antibody (HCAb): human VH fused to human IgG1 Fc; no light chain; also called anti-PD-L1 HCAb antibody
As for B1, the 50% effective concentration (EC50) in assay [1] is 0.79 nM; in assay [2], 0.421 nM; in assay [3] it was 3 nM. In addition, the “Maximum MFI” value in assay [1] was 23700 MFI; in assay [2] it was 8440 MFI; in assay [3] it was 3080 MFI.

B2: PR001061 (antibody, human IgG1, V domains shown)
VH: EVQLLESGGGVVQPGRSLRLSCAASGFNFSSYGMYWVRQAPGKGQEWVAIIWYDGSRKHYADSVKGRFTISRDNSKNTLYLEMNSLRAEDTAMYYCAKNRAIFGVVPDASDIRGQGTMVTVSS
notes: as for B1
Turning to B2, in assay [2], the midpoint of the response, the EC50, lay at 0.4 nM and the “Maximum MFI” value is 8840 MFI. Besides, in assay [3], it took 2.31 nM to reach a half-maximal effect (EC50) and the “Maximum MFI” value was found to be 3090 MFI.

B3: PR002079 (antibody, human IgG1, V domains shown)
VH: QVQLVESGGGVVQPGMSLRLSCAASGFTFSNYGMYWVRQAPGKGQEWVAIIWYDGTKKHYADSVKGRFTISRDNSKNTLYLEMNSLRVEDTAVYYCAKNRAIFGVVPDASDIRGQGTMVTVSS
notes: HCAb; also called PTM variant of PR000960 (N28T)
Take B3: the EC50 was found to be 0.83 nM in assay [1] and 0.376 nM in assay [2]. Moreover, the “Maximum MFI” value in assay [1] is 24600 MFI.

B4: PR005263 (antibody, human IgG1, V domains shown)
VH: QVQLVESGGGVVQPGMSLRLSCAASGFTFSSYGMYWVRQAPGKGQEWVASIRYTGTEKHYADSVKGRFTISRDNSKNTLYLEMNSLRVEDTAVYYCAKNRAIFGVVPDASDIRGQGTMVTVSS
notes: The HC entry is used
Regarding B4, in assay [4], binding was characterised by a dissociation constant (Kd) of 1.94 nM, the koff came out at 0.000227 s⁻¹ and the kon stood at 117000 M⁻¹ s⁻¹. In assay [5], the midpoint of the response, the EC50, lay at 1.19 nM and the “Maximum MFI” value turned out to be 11700 MFI. Further, in assay [6], the midpoint of the response, the EC50, lay at 0.914 nM and the “Maximum MFI” value stood at 363000 MFI.

B5: PR001065 (antibody, human IgG1, V domains shown)
VH: EVQLVESGGGVVQPGRSLRLSCAASGFNFSSYGMYWVRQAPGKGQEWVAIIWYDGTKKHYADSVKGRFTISRDNSKNTLYLEMNSLRVEDTAVYYCAKNRAIFGVVPDASDIRGQGTMVTVSS
notes: as for B1
For the molecule B5, in assay [2], the response was half-maximal at 0.7 nM (EC50) and the “Maximum MFI” value is 8780 MFI. In assay [3], it took 2.67 nM to reach a half-maximal effect (EC50) and the “Maximum MFI” value came to 3000 MFI.

B6: PR006246 (antibody, human IgG1, V domains shown)
VH: QVQLVESGGGVVQPGMSLRLSCAASGFDFSSYGMYWVRQAPGKGQEWVASIRYTGTEKHYADSVKGRFTISRDNSKNTLYLEMNSLRVEDTAVYYCAKNRAIFGVIPDDSDIRGQGTMVTVSS
notes: The HC entry is used
In assay [4], B6 showed a Kd of 0.546 nM, a koff of 0.000164 s⁻¹ and a kon of 301000 M⁻¹ s⁻¹. Moreover, in assay [5], the EC50 was determined as 0.736 nM and the “Maximum MFI” value stood at 11600 MFI. In addition, in assay [7], a half-maximal effect (EC50) was put at 0.764 nM and the “Maximum MFI” value stood at 396000 MFI.

B7: PR005872 (antibody, human IgG1, V domains shown)
VH: QVQLVESGGGVVQPGMSLRLSCAASGFTFSSYGMYWVRQAPGKGQEWVASIRYTGTEKHYADSVKGRFTISRDNSKNTLYLEMNSLRVEDTAVYYCAKNRAIFGVIPDDSDIRGQGTMVTVSS
notes: The HC entry is used
As for B7, in assay [8], it took 0.787 nM to reach a half-maximal effect (EC50) and the “Maximum MFI” value was determined as 385000 MFI. In assay [4], this molecule yielded a Kd of 0.861 nM, a koff of 0.000187 s⁻¹ and a kon of 218000 M⁻¹ s⁻¹. Besides, in assay [5], the half-maximal effective concentration (EC50) was determined as 0.733 nM and the “Maximum MFI” value turned out to be 11800 MFI.

B8: PR005875 (antibody, human IgG1, V domains shown)
VH: QVQLVESGGGVVQPGMSLRLSCAASGFTFSSYGMYWVRQAPGKGQEWVASIRYTGTEKHYADSVKGRFTISRDNSKNTLYLEMNSLRVEDTAVYYCAKNRALFGVIPDASDIRGQGTMVTVSS
notes: The HC entry is used
Turning to B8, in assay [8], a half-maximal effect (EC50) was put at 0.974 nM and the “Maximum MFI” value came to 372000 MFI. For the same molecule, in assay [4], binding was characterised by a dissociation constant (Kd) of 1.04 nM, the koff was determined as 0.000179 s⁻¹ and the kon stood at 172000 M⁻¹ s⁻¹. For the same molecule, in assay [5], a half-maximal response (EC50) required 0.774 nM and the “Maximum MFI” value was determined as 11500 MFI.

B9: PR005878 (antibody, human IgG1, V domains shown)
VH: QVQLVESGGGVVQPGMSLRLSCAASGFTFSSYGMYWVRQAPGKGQEWVASIRYTGTEKHYADSVKGRFTISRDNSKNTLYLEMNSLRVEDTAVYYCAKNRALFGVIPDDSDIRGQGTMVTVSS
notes: The HC entry is used
As to B9, in assay [8], it took 0.944 nM to reach a half-maximal effect (EC50) and the “Maximum MFI” value stood at 379000 MFI. Moreover, in assay [4], the equilibrium dissociation constant (Kd) was determined as 0.671 nM, the koff amounted to 0.000121 s⁻¹ and the kon was 180000 M⁻¹ s⁻¹. In addition, in assay [5], the concentration giving a half-maximal response (EC50) came to 0.894 nM and the “Maximum MFI” value came out at 11700 MFI. Further, in assay [7], a half-maximal response (EC50) required 1.08 nM and the “Maximum MFI” value stood at 419000 MFI.

B10: PR001058 (antibody, human IgG1, V domains shown)
VH: EVQLVESGGGVVQPGRSLRLSCAASGFTFSSYGMYWVRQAPGKGQEWVAIIWYDGTKKHYADSVKGRFTISRDNSKNTLYLEMNSLRVEDTAVYYCAKNRAIFGVVPDASDIRGQGTMVTVSS
notes: as for B1
Take B10: in assay [2], the response was half-maximal at 0.4 nM (EC50) and the “Maximum MFI” value stood at 8480 MFI. In assay [3], this molecule returned a 50% effective concentration (EC50) of 3.33 nM.

B11: PR006248 (antibody, human IgG1, V domains shown)
VH: QVQLVESGGGVVQPGMSLRLSCAASGFDFSSYGMYWVRQAPGKGQEWVASIRYTGTEKHYADSVKGRFTISRDNSKNTLYLEMNSLRVEDTAVYYCAKNRALFGVIPDDSDIRGQGTMVTVSS
notes: The HC entry is used
As for B11, in assay [4], the affinity, expressed as Kd, was 0.634 nM; the dissociation rate constant (koff) was found to be 0.000115 s⁻¹; the kon turned out to be 182000 M⁻¹ s⁻¹. Besides, in assay [5], the EC50 is 0.717 nM and the “Maximum MFI” value stood at 11500 MFI. Also, in assay [7], the midpoint of the response, the EC50, lay at 0.606 nM and the “Maximum MFI” value worked out at 404000 MFI.
